Experimental data as given in patent publication US20140302517A1 (SAMSUNG ELECTRONICS, published 2014).

B1: EW02 (antibody, human IgG1, lambda, V domains shown)
VH: EVQLLESGGGLVQPGGSLRLSCAASGFTFSNYAMSWVRQAPGKGLEWVSSISSSGGNTYYADSVKGRFTISRDNSKNTLYLQMNSLGAEDTAVYYCAKYHSVFDYWGQGTLVTVSS
VL: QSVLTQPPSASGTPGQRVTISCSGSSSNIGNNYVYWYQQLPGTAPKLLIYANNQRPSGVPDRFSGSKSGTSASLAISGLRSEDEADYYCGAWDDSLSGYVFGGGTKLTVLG
notes: also called EW02 antibody
B2: EW01 (antibody, human IgG1, lambda, V domains shown)
VH: EVQLLESGGGLVQPGGSLRLSCAVSGFTFSDYYMSWVRQAPGKGLEWVSGIYSSSSNIYYADSVKGRFTISRDNSENTLYLQMNSLRAEDTAVYYCAKALGNQENEPTSYSNGMDVWGQGTLVTVSS
VL: QSVLTQPPSASGTPGQRVTISCSGSSSNIGNNSVYWYQQLPGTAPKLLIYSDSQRPSGVPDRFSGSKSGTSASLAISGLRSEDEADYYCGTWDYSLNGYVFGGGTKLTVLG
notes: also called anti-idiotype antibody EW01; EW01 antibody
B3: huAbF46-H4-A1 (IgG2 Fc) (antibody, V domains shown)
VH: EVQLVESGGGLVQPGGSLRLSCAASGFTFTDYYMSWVRQAPGKGLEWLGFIRNKANGYTTEYSASVKGRFTISRDNSKNTLYLQMNSLRAEDTAVYYCARDNWFAYWGQGTLVTVSS
VL: DIQMTQSPSSLSASVGDRVTITCKSSQSLLASGNQNNYLAWYQQKPGKAPKMLIIWASTRVSGVPSRFSGSGSGTDFTLTISSLQPEDFATYYCQQSYSRPYTFGQGTKVEIKR
notes: It was biotinylated in some assays; also called anti-c-Met antibody; biotinylated anti-c-Met antibody

Experiments:
huAbF46-H4-A1 (IgG2 Fc) [1] = biological target: B3; experiment: bridging ELISA: plate coated with anti-c-Met antibody, anti-idiotype antibody, biotinylated anti-c-Met antibody as detector
Method: (§1) The antibodies prepared in Example 1 above were produced in 293 F cells (invitrogen), purified and quantified to adjust their concentration, and then used for the following tests. The quantification of the purified antibodies was performed using a Nano-drop machine, and numerals reflecting A280/A260 absorption values were used. The quantification results were confirmed again through SDA-PAGE procedures. […] After blocking, the plates were washed with a PBST (0.05% Tween20 in PBS) and then treated with the anti-idiotype antibodies prepared in example 1 at 10-fold serial dilution concentrations (10 μg/ml, 1 μg/ml, 0.1 μg/ml, and 0.01 μg/ml) starting from 10 μg/ml, respectively to react at a room temperature for one hour. After the reaction was complete, the plates were washed again with a microplate washer (Biotek ELx405, PBST).
(§2) For color development, the plates were treated with TMB (3,3,5,5-tetramethylbenzidine) which is a HRP substrate, and absorption was measured at 450 nm.

huAbF46-H4-A1 (IgG2 Fc) [2] = biological target: B3; experiment: SPR (Biacore)
[3] = biological target: T1, human c-Met/Fc fusion protein (R&D Systems) (human, UniProt P08581 25-932); experiment: ELISA, hybridoma culture on plates coated with human c-Met/Fc fusion protein
T1 construct: Bought; also called human c-Met/Fc protein; not shown: Fc part
Method: The antibody that remained unbound was removed by washing.
The hybridoma cell culture obtained in Reference Example 1.1.2 was added in an amount of 50 μL to each well of the plates and incubated for 1 hour. The cells remaining unreacted were washed out with a sufficient amount of Tris-buffered saline and Tween 20 (TBST). Goat anti-mouse IgG-horseradish peroxidase (HRP) was added to the plates and incubated for 1 hour at room temperature. The plates were washed with a sufficient amount of TBST, followed by reacting the peroxidase with a substrate (OPD). Absorbance at 450 nm was measured on an ELISA reader.

huAbF46-H4-A1 (IgG2 Fc) [4] = biological target: B3; experiment: bridging ELISA: plate coated with anti-c-Met antibody 1 ug/ml; anti-idiotype antibody at 0.01 to 10 (ug/ml per paragraph 258, axis prints no unit); detection with biotinylated anti-c-Met antibody 200 ng/ml and avidin-HRP; absorbance at 450 nm
Method: as §1, §2

EW02 = biological target: B1; experiment: sandwich ELISA: capture EW02 0.25 ug/ml; anti-c-Met antibody titrated 3-fold from 1 (ug/ml per paragraph 273, axis prints no unit) in 10% human serum; detector EW01-biotin 0.25 ug/ml, streptavidin-HRP; absorbance at 450 nm
Description: Finally, the plates were washed with a washing solution (PBST (0.05% Tween20 in PBS)) to eliminate unreacted HRP and then, they were subject to color development using a TMB substrate to measure absorption at 450 nm.

[5] = biological target: T2, c-Met protein (358-MT/CF, RND systems) (UniProt P08581 25-932); experiment: ELISA, 'Pre-existing Experiment (0.1% serum)': plate coated with c-Met protein; anti-c-Met antibody titrated 3-fold from 1 ug/ml in monkey serum diluted to 0.1%; Abs450
T2 construct: Bought reagent, known only by its catalogue number; also called antigen c-Met protein

EW01 = biological target: B2; experiment: sandwich ELISA: plate coated with EW01 0.25 ug/ml; anti-c-Met antibody titrated 3-fold from 1 ug/ml in cynomolgus monkey serum (10% per paragraph 268; the sheet's title prints 0.1% serum); detector biotinylated EW01 0.25 ug/ml, streptavidin-HRP; Abs450
Method: After the reaction of the detection antibody was over, the same washing procedures as above were carried out, and a HRP-streptavidin solution (BioLegend) was added thereto to react at a room temperature for one hour. After all the reactions were over, the plates were finally washed and treated with a TMB substrate for color development, and absorption was measured at 450 nm and analyzed.

T1 sequence (P08581 25-932 limits assumed): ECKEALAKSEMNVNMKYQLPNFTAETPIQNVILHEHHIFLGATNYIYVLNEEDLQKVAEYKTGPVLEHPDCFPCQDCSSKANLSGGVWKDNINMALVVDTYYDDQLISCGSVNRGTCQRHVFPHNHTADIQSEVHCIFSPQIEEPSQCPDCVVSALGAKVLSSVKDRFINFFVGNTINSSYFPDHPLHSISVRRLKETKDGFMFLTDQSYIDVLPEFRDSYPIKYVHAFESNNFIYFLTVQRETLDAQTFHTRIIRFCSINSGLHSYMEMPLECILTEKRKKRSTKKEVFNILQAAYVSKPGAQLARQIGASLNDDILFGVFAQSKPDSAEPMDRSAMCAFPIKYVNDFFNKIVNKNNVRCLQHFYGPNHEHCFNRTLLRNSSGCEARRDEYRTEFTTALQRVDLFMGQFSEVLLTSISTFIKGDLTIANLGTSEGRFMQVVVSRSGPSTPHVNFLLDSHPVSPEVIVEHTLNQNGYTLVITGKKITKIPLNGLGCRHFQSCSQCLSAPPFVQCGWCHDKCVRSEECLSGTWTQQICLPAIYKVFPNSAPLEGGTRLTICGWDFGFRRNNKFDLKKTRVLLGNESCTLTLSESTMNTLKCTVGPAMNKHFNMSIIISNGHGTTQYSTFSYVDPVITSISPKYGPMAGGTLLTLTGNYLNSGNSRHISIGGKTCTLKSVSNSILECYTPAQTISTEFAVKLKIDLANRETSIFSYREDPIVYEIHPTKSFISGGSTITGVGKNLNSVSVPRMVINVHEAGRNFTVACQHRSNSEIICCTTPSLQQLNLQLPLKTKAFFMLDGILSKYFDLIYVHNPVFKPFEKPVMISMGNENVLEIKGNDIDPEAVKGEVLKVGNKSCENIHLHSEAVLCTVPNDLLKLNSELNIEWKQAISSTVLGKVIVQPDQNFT
T2 sequence (P08581 25-932 limits assumed): as above

binding result (huAbF46-H4-A1 (IgG2 Fc) [1]) | Binder | other results
binds | HAL 7-2 (antibody, human IgG1, lambda, V domains shown) VH: QVQLVQSGAEVKKPGSSVKVSCKASGGTFSSYAISWVRQAPGQGLEWMGGIIPIFGTANYAQKFQGRVTITADESTSTAYMELSSLRSEDTAVYYCARDRNSYYEEPMYYFDYWGQGTLVTVSS VL: QAGLTQPPSVSVSPGQTASITCSGDKLGDRYVFWYQQKPGQAPVLVVHDDSDRPSGIPERFSGSNSGDTATLTISRVEAGDEADYYCQVWDSVNDHPVFGGGTKLTVLG | –
binds | HAL 7-5 (antibody, human IgG1, lambda, V domains shown) VH: QVQLVQSGAEVKKPGASVKVSCKASGGTFSSYAISWVRQAPGQGLEWMGGIIPIFGTANYAQKFQGRVTITADESTSTAYMELSSLRSEDTAVYYCARDRNSYYEEPMYYFDYWGQGTLVTVSS VL: not shown | –
– | B1 | Kd (huAbF46-H4-A1 (IgG2 Fc) [2]): 38.4 nM; koff (huAbF46-H4-A1 (IgG2 Fc) [2]): 0.0032 s⁻¹; kon (huAbF46-H4-A1 (IgG2 Fc) [2]): 85000 M⁻¹ s⁻¹
binds | EW28 (antibody, human IgG1, lambda, V domains shown) VH: EVQLLESGGGLVQTGGSLRLSCAVSGFTFSDYAMSWVRQAPGKGLEWVSAISSGDGNTYYADSVKGRFTISRDNSKNTLYLQMNSLRAEDTAVYYCARYLGTTSDEPASYSNGMDVWGQGTLVTVSS VL: not shown | –
binds | HAL 7-7 (antibody, human IgG1, lambda, V domains shown) VH: not shown VL: QSVLTQPPSVSMAPGQTARITCGGNNIATKGVHWYQQKAGQAPVLVVYDDSGRPSGIPDRFSGSKSGNTATLTISRVEAGDEADYYCQLWDGRSDQVLFGGGTKLTVLG | –
– | AbF46 (antibody, V domains shown, Mouse monoclonal antibody from a hybridoma; tested as hybridoma culture supernatant in the selection ELISA; also called mouse antibody AbF46; monoclonal antibody of hybridoma KCLRF-BP-00220) VH: EVKLVESGGGLVQPGGSLRLSCATSGFTFTDYYMSWVRQPPGKALEWLGFIRNKANGYTTEYSASVKGRFTISRDNSQSILYLQMDTLRAEDSATYYCARDNWFAYWGQGTLVTVSA VL: DILMTQSPSSLTVSAGEKVTMSCKSSQSLLASGNQNNYLAWHQQKPGRSPKMLIIWASTRVSGVPDRFIGSGSGTDFTLTINSVQAEDLAVYYCQQSYSAPLTFGAGTKLELK | binding result [3]: binds
binds | EW09 (antibody, human IgG1, lambda, V domains shown) VH: EVQLLESGGGLVQPGGSLRLSCAASGFTFSDYDMSWVRQAPGKGLEWVSSISYGGGSIYYADSVKGRFTISRDNSKNTLYLQMNSLRAEDTAMYYCARDAAYFDYWGQGTLVTVSS VL: not shown | –
binds | HAL 8-7 (antibody, human IgG1, kappa, V domains shown) VH: not shown VL: AIQLTQSPLSLSVSAGEKVTMSCKSSQSLLNSGNQKNDLAWYQQKPGQRPKLLIYGASTRESGVPDRFTGSGSGTDFTLTISSVQAEDLAVYYCQNDHSYPLTFGAGTKLEIKR | –
– | B2 | binding result (huAbF46-H4-A1 (IgG2 Fc) [4]): binds
binds | EW06 (antibody, human IgG1, lambda, V domains shown) VH: EVQLLESGGGLVQPGGSLRLSCAASGFTFSGYDMSWVRQAPGKGLEWVSGISHGDGNIYYADSVKGRFTISRDNSKNTLYLQMNSLRAEDTAVYYCAKVGLLFVQEEPSYYNAMDVWGQGTLVTVSS VL: QSVLTQPPSASGTPGQRVTISCTGSSSNIGSNNVTWYQQLPGTAPKLLIYSNSHRPSGVPDRFSGSKSGTSASLAISGLRSEDGADYYCGTWDDSLNGYVFGGGTKLTVLG | –
binds | EW03 (antibody, human IgG1, lambda, V domains shown) VH: EVQLLESGGGLVQPGGSLRLSCAASGFTFSDYDMSWVRQAPGKGLEWVSLISYGGSNTYYADSVKGRFTISRDNSKNTLYLQMNSLRAEDTAVYYCAKFRSEFNENEPSSYYGMDVWGQGTLVTVSS VL: QSVLTQPPSASGTPGQRVTISCSGSSSNIGNNDVTWYQQLPGTAPKLLIYSDSNRPSGVPDRFSGSKSGTSASLAISGLRSEDEADYYCGTWDSSLSAYVFGGGTKLTVLG | –
binds | EW16 (antibody, human IgG1, lambda, V domains shown) VH: EVQLLESGGGLVQPGGSLRLSCAASGFTFSDYYMSWVRLAPGKGLEWVSAISHSSGNTYYADSVKGRFTISRDNSKNTLYLQMNSLRAEDTAVYYCAKHLGAQSDEPDSSSNGMDVWGQGTLVTVSS VL: QSVLTQPPSASGTPGQRVTISCTGSSSNIGNNDVYWYQQLPGTAPKLLIYSDSNRPSGIPDRFSGSKSGTSASLAISGLRSEDEADYYCGTWDDSLNGYVFGGGTKLTVLG | –
binds | EW10 (antibody, human IgG1, lambda, V domains shown) VH: EVQLLESGGGLVQPGGSLRLSCAASGFTFSGYDMSWVRQAPGKGLEWVSGISYNGGSKYYADSVKGRFTISRDNSKNTLYLQMNSLRAEDTAVYYCAKYLLPVLEEPGYSADGMDVWGQGTLVTVSS VL: QSVLTQPPSASGTPGQRVTISCTGSSSNIGSNYVSWYRQLPGTAPKLLIYSDSNRPSGVPDRFSGSKSGTSASLAISGLRSEDEADYYCATWDASLSAYVFGGGTKLTVLG | –
binds | EW37 (antibody, human IgG1, lambda, V domains shown) VH: EVQLLESGGGLVQPGGSLRLSCAASGFTFSNYSMSWVRQAPGKGLEWVSSISSSGGNTYYADSVKGRFTISRDNSKNTLYLQMNSLRAEDTAVYYCARVHLYFDYWGQGTLVTVSS VL: QSVLTQPPSASGTPGQRVTISCSGSSSNIGSNSVNWYQQLPGTAPKLLIYSDSHRPSGVPDRFSGSKSGTSASLAISGLRSEDEADYYCGSWDDSLSGYVFGGGTKLTVLG | –
binds | EW26 (antibody, human IgG1, lambda, V domains shown) VH: EVQLLESGGGLVQPGGSLRLSCAASGFTFSNYAMSWVRQAPGKGLEWVSAIYPGGGNTYYADSVKGRFTISRDNSKNTLYLQMNSLRAEDTAVYYCAKSLSTHSVDEPSSDNAMDVWGQGTLVTVSS VL: QSVLTQPPSASGTPGQRVTISCTGSSSNIGSNSVSWYQQLPGTAPKLLIYDDSNRPSGVPDRFSGSKSGTSASLAISGLRSEDEADYYCASWDYSLNAYVFGGGTKLTVLG | –
– | B3 | binding result (EW02): binds; EC50 (read off the curve) [5]: ~0.03 µg/mL; EC50 (read off the curve) (EW01): ~0.02 µg/mL
binds | HAL 7-12 (antibody, human IgG1, lambda, V domains shown) VH: QLQLQESGGGLVQPGGSLRLSCAASGFTFSSYAMSWVRQAPGKGLEWVSAISGSGGSTYYADSVEGRFTISRDNSKNTLYLQMNSLRAEDTAVYYCAKERLEEPGFFDYWGQGTLVTVSS VL: QSALTQPASVSGSPGQSITISCTGTSSDVGGYNYVSWYQQHPGKAPKLMIYEVSNRPSGVSNRFSGSKSGNTASLTISGLQAEDEAHYYCSSYTTDNAWVFGGGTQLTVLG | –
